We go through one molecule from patent publication CN108586611A (UNIV JINAN; ZHUHAI TAINUO MAIBO BIOTECHNOLOGY CO LTD; …, dated 2018).

This experiment addresses 破伤风毒素 (tetanus toxin) (Clostridium tetani, UniProt P04958 2-1315).

Chain of 破伤风毒素 (tetanus toxin) (P04958 2-457 limits assumed, chain 1 of 2): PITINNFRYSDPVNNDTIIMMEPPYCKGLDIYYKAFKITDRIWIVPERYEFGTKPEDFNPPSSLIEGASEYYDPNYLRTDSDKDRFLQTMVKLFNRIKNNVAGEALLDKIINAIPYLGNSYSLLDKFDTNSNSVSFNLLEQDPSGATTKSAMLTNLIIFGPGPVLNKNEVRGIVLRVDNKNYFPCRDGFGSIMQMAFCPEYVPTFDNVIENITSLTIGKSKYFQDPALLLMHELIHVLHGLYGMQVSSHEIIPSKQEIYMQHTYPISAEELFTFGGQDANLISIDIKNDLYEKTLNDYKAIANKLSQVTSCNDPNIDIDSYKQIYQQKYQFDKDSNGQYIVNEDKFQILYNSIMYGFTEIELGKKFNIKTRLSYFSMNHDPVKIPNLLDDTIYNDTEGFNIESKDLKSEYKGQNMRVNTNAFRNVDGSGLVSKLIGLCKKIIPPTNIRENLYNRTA
Chain of 破伤风毒素 (tetanus toxin) (P04958 458-1315 limits assumed, chain 2 of 2): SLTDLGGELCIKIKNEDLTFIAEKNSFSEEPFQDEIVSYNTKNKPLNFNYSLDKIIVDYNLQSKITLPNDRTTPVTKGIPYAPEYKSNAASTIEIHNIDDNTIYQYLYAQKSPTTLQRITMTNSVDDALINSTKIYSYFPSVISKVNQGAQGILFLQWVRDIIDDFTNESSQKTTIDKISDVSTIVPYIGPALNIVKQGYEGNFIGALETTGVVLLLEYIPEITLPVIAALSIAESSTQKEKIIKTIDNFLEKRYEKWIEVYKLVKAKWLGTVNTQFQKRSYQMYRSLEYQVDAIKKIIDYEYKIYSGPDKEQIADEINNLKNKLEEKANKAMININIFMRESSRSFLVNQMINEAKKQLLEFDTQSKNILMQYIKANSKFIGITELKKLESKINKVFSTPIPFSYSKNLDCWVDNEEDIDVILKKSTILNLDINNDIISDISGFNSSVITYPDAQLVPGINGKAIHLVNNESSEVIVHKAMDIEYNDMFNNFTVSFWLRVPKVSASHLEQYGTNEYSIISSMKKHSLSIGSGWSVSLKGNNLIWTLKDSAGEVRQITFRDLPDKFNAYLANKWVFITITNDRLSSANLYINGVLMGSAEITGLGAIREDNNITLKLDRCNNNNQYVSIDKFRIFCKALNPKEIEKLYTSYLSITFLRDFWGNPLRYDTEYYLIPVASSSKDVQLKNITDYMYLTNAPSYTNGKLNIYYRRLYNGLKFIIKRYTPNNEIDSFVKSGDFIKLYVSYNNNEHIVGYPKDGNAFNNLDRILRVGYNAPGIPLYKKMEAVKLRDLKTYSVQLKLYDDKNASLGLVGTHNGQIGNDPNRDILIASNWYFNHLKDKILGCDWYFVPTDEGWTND

B1: TRN1014抗体 (重组全人源抗破伤风毒素单克隆抗体) (antibody, V domains shown)
VH: EVQLVESGGDLVPPGGSLRLSCVASGFTFRNYWMNWVRQAPGQGLQWVASIKDDGTESQYLESVKGRFTISRDNAKNSLSLQMDSLRAEDTALYFCTRVGGFYFGSERYYKGGDDVWGQGTTVTVSS
VL: DIVLTQSPSSLSASVGDRVTFTCRASQTISNYLHWYQQKPGQAPELLIFAASNRQGGVPSRFRGSGSGTDFTLTISPLEADDFATYYCQQSYSSPRTFGQGTKLEIK
For the molecule B1, the Kd was 1.1 nM, the koff was 6.07e-05 s⁻¹ and the kon was 55100 M⁻¹ s⁻¹.

The Kd is a measure of binding affinity in units of concentration. A low value points to a tighter complex. The term koff denotes the rate constant with which the complex falls apart. What is called kon is the rate constant with which the complex forms. A high value points to faster complex formation.
